# In paper doi:10.1101/2022.01.14.476392 (bioRxiv, 2022):
# B1: diol-dehydratase PduCDE (complex, Salmonella enterica)
# chain 1: MRSKRFEALAKRPVNQDGFVKEWIEEGFIAMESPNDPKPSIKIVNGAVTELDGKPVSEFDLIDHFIARYGINLNRAEEVMAMDSVKLANMLCDPNVKRSEIVPLTTAMTPAKIVEVVSHMNVVEMMMAMQKMRARRTPSQQAHVTNVKDNPVQIAADAAEGAWRGFDEQETTVAVARYAPFNAIALLVGSQVGRPGVLTQCSLEEATELKLGMLGHTCYAETISVYGTEPVFTDGDDTPWSKGFLASSYASRGLKMRFTSGSGSEVQMGYAEGKSMLYLEARCIYITKAAGVQGLQNGSVSCIGVPSAVPSGIRAVLAENLICSSLDLECASSNDQTFTHSDMRRTARLLMQFLPGTDFISSGYSAVPNYDNMFAGSNEDAEDFDDYNVIQRDLKVDGGLRPVREEDVIAIRNKAARALQAVFAGMGLPPITDEEVEAATYAHGSKDMPERNIVEDIKFAQEIINKNRNGLEVVKALAQGGFTDVAQDMLNIQKAKLTGDYLHTSAIIVGDGQVLSAVNDVNDYAGPATGYRLQGERWEEIKNIPGALDPNEID
# chain 2: MEINEKLLRQIIEDVLRDMKGSDKPVSFNAPAASTAPQTAAPAGDGFLTEVGEARQGTQQDEVIIAVGPAFGLAQTVNIVGLPHKSILREVIAGIEEEGIKARVIRCFKSSDVAFVAVEGNRLSGSGISIGIQSKGTTVIHQQGLPPLSNLELFPQAPLLTLETYRQIGKNAARYAKRESPQPVPTLNDQMARPKYQAKSAILHIKETKYVVTGKNPQELRVAL
# chain 3: MNTDAIESMVRDVLSRMNSLQGDAPAAAPAAGGTSRSAKVSDYPLANKHPEWVKTATNKTLDDFTLENVLSNKVTAQDMRITPETLRLQASIAKDAGRDRLAMNFERAAELTAVPDDRILEIYNALRPYRSTKEELLAIADDLENRYQAKICAAFVREAAGLYVERKKLKGDD
# Molecular target: the molecule itself
# Assay: BLI
protein,measurement,value
B1,Kd,3.5 µM
